Here are results for 41 sequences from the nanobody polyreactivity screen of Harvey et al. (2022).

This series in a line: yeast display, Sf9 membrane polyspecificity reagent, FACS + sequencing; frameworks hold sequencing errors. The method in brief: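 Using colony PCR, genes from sorted yeast display clones were amplified, then sequenced on MiSeq at 2 × 250 and filtered by CDR length. The clones had been stained with 10% biotinylated, detergent-solubilized Sf9 membrane reagent for 1 hour at 4 °C and sorted by FACS into low and high (top ~1%) gates on anti-HA and streptavidin fluorescence. Polyreactivity labels come from the gate of origin.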
For the sequence “QVQLVESGGGLVQAGGSLRLSCAASGFTFSAYAMGWYRQAPGKERELVASITRSGGSTYYADSVKGRFTISRDNAKNTVYLQMNCLKPEDTAVFYCAKSDRPWWGYYYQFDYWGQGTQVSVSS”, the “polyreactivity (PSR sort gate)” value is listed as “low polyreactivity”. Then “QVQLVESGGGLVQAGGSLRLSCAASGFTFSCYAMGWYRQAPGKEREFVAAISRRGAITSYADSVKGRFTISRDNAKNTVYLQMNSLKPEDTAVYYCNARYPHYYYSAYNYWGQGSQVTVSS”, with “high polyreactivity”; and “QVQLVESGGGLVQAGGSLRLSCAASGFTFSDNAMGWDRQAPGKERELVATISQSSGSTSYADSVKGRFTISRDYAKNTVYLQLNSLKPEDTAVYSCANRRLFYWGKGTQVTVSS”, with “low polyreactivity”; and “QVQLVESGGGLVQAGGSLRLSCAASGFTFSENTMGWYRQAPGKERELVADIDSGGSTYYADSVKGRFTISRDNAKNTVYLQMNSLKPEVTAVYYCAIDYHVVGGQTFLFEYDYWGQGTQVTVSS”, with “low polyreactivity”. To “QVQLVESGGGLVQAGGSLRLSCAASGFTFSFYAIGWYRQAPGKERELVAAINYSGGRTYYADSVKGRFTISRDNAKNTVYLQMNSLKPEDTAVYYCAVHIPSVSGVTDYYYWGQGSQVTVSS” belongs “high polyreactivity”; to “QVQLVESGGGLVQAGGSLRLSCAASGFTFSFYAMGRYRQAPGKEREYVAAITNSGGSTYYADSVKGRFTISRDNAKNTVYLQMNSLKPEDTGVYYCASKRAWPGYFTYYSWGQGTQVTVSS”, “high polyreactivity”. To “QVQLVESGGGLVQAGGSLRLSCAASGFTFSGNAMGWYRQAPGKEREIVAAITARGGNTFYADSVKGRFTISRDNAKNTVYLQMNSLQPEETAVSYCKRGPYYSSSKYRFSAYHRAYWGQGNQVTVSS” belongs “high polyreactivity”; to “QVQLVESGGGLVQAGGSLRLSCAASGFTFSGNVMGWYRQAPGKERELVAGISRSGSSTSYADSVKGRFTISRDNAKNTVYLQMNSLKPEDTAVYYCNKVKRSYYYVDTDYWGQGTQVTVSS”, “high polyreactivity”; to “QVQLVESGGGLVQAGGSLRLSCAASGFTFSGYDIGWYRQAPGKERELVAGISSGGVSTTYADSVKGRFTISRDNAKNTVYLQMNSLKPEDTAVYYCNAEWTSFDWGQGTQVTVSS”, “low polyreactivity”. With “QVQLVESGGGLVQAGGSLRLSCAASGFTFSINAMGWYRQAPGKERELVASITWSGGRTYYADSVKGRFTISRDNAKNTVYLQMNSLKPEDTAVYYCAARSYGTSTYDYWGQGTQETVSS”, the “polyreactivity (PSR sort gate)” value is listed as “high polyreactivity”. Take “QVQLVESGGGLVQAGGSLRLSCAASGFTFSKYAMGWYRQAPGKERELVAGITWSGGRTYYADSVKGRFTISRDNAKNTVYLQLNSLIPDDSAVYYCAADPVWGRYIKYDYWGQGTQVTVSS”: the “polyreactivity (PSR sort gate)” value is given as “high polyreactivity”. As to “QVQLVESGGGLVQAGGSLRLSCAASGFTFSKYAMGWYRQAPGTERELVASIDDGGSTNYADSVKGRFTISRDNAKTTVYLQMNRLNPEDTAVYYCNASYPTGYWYYVIVQYDYWGQGTQVTVSS”, the “polyreactivity (PSR sort gate)” value is listed as “low polyreactivity”. Then “QVQLVESGGGLVQAGGSLRLSCAASGFTFSKYDMGWYRQATGKERELVAAISRSAGSTYYADSVKGRFTISRDHAKNTVYLQMNSLKPEDTAVYYCARDNPRSPSGYNYWGQGTQVTVSS”, with “high polyreactivity”; and “QVQLVESGGGLVQAGGSLRLSCAASGFTFSKYVMGWYRQAPGKERELVAAITTSGGSTYYADSVKGRFTISRDNAKNTVYLQMNSLKPEDTAVYYCNARSLHTSEGDYWGQGTQVTVSS”, with “low polyreactivity”; and “QVQLVESGGGLVQAGGSLRLSCAASGFTFSLNTMGWYRQAPGKERELVAAINSGDSTYADSVKGRFTISRDNAKNTVYLQMNSLKPEDTAVYYCNADPDWWYPYNYWGLGTQVTVSS”, with “low polyreactivity”. “QVQLVESGGGLVQAGGSLRLSCAASGFTFSQYAMGWYRQAPGKERELDAAISWNGGSTYYADSVKGRFTISRDNAKNTVYLQMNSLKPEDTAVYYCAAYGYYTKVTKYDYWGQGTQVTVSS”: the “polyreactivity (PSR sort gate)” value is “high polyreactivity”. Consider “QVQLVESGGGLVQAGGSLRLSCAASGFTFSRNAMGWYRQAPGKERELVAAIDSGGSTDYADSVKGRFTISRDNAKNTVYLQLNSLKPEDTAVYYCAKASSATRYVQLRQDYDYWGQGTQVTVSS”, for which the “polyreactivity (PSR sort gate)” value is on record as “low polyreactivity”.

Regarding “QVQLVESGGGLVQAGGSLRLSCAASGFTFSRNTMGSSRQAPGKERELVARIPASGGSTYYADSVKGRFTISRDNAKNTVYLLMNSLNPEDTAVYYCAAVYRRYGASRYDYWGQGTQVTVSS”, the “polyreactivity (PSR sort gate)” value was “high polyreactivity”. Then “QVQLVESGGGLVQAGGSLRLSCAASGFTFSRYAMGWYRQAPGKEREFVAAISWSGGSTYYADSVKGRFTISRDNAKNTVYLQMNSLKPEDTAVYYCNAGSQLLASQTRYDYWGQGTQVTVSS”, with “low polyreactivity”; and “QVQLVESGGGLVQAGGSLRLSCAASGFTFSRYVMGWYRQAPGKERELVATISSDGDDTYYADSVKGRFTISRDNAKNTVYLQMNSLKPEDTAVYYCAAESYTYYADYGYGYWGQGTQVTVSS”, with “high polyreactivity”. Then “QVQLVESGGGLVQAGGSLRLSCAASGFTFSSYAMGWYRQEPGKERELVAAISTSGASTYYADSVKGRFTISRDNAKNTVYLQMNSLKPEDTAVYYCNVPQWHRWYRYPGEDYDYWGQGTQVTVSS”, with “high polyreactivity”; and “QVQLVESGGGLVQAGGSLRLSCAASGFTFSTNAMGWYRQAPGKERELVAAITWRGGSTYYADSVKGRFTISRDNAKNTVYLQMNSLKPEDTAVYYCARRSRGSHVSYYKKFDYWGQGTQVTVSS”, with “low polyreactivity”; and “QVQLVESGGGLVQAGGSLRLSCAASGFTFSTYTMGWYRQAPGKERELVARITWSGTRTYYADSVKGRFTISRDNAKNTVYLQMNSLKPEDTAVYYCNAGPYARYYWGQGTQVTVSS”, with “high polyreactivity”. Then “QVQLVESGGGLVQAGGSLRLSCAASGFTFSVNAMGWYRQAPGKERELVAAITRSGGRTYYADSVKGRFTISRDNAKNTVYLQMNSLKPEDTAVYYCATPRSRTDGYDYWGQGTQVTVSS”, with “high polyreactivity”; and “QVQLVESGGGLVQAGGSLRLSCAASGFTFSWYALGWYRQAPGKERELVAAINWSGTSTYYADSVKGRFTISRDNAKNTVYLQMNSLKPEDTAVYYCNVVVYRWSPVSKLDYWGQGTQVTVSS”, with “high polyreactivity”.

In the case of “QVQLVESGGGLVQAGGSLRLSCAASGFTFSWYAMGRYRQAPGKERELVAAISSAGNTNYADSVKGRFTISRDNAKNTVYLQMNSLKPEDTAVYYCAKRDYWGQGTQVTVSS”, the “polyreactivity (PSR sort gate)” value is given as “high polyreactivity”. Turning to “QVQLVESGGGLVQAGGSLRLSCAASGFTFSWYAMGWYRQAPGKERELVAAINADGGTTYYADSVKGRFTISRDNAKNTVYLQMNRLKPEDTAVYYCAAELSVDKYDYWGQGTQVTVSS”, the “polyreactivity (PSR sort gate)” value is “low polyreactivity”. Consider “QVQLVESGGGLVQAGGSLRLSCAASGFTFSWYAMGWYRQAPGKETELVAAITRSGGSTNYADSVKGRFTISRDNAKNTVYLQMNSLKPEDTAVYYCNAAGYRRSTWWYDYWGQGTQVTVSS”, for which the “polyreactivity (PSR sort gate)” value is recorded as “high polyreactivity”. To “QVQLVESGGGLVQAGGSLRLSCAASGFTFSYNSMGRYRQATAKERELVARISRTGGSTNYADSVKGRFTISRDNAKNTVYLQMNSLKPEDTAVYYCATGYRYTYGSWGQGTQVTVSS” belongs “high polyreactivity”. Then “QVQLVESGGGLVQAGGSLRLSCAASGFTFSYYAMGWDRQAPGKERELVAVISNSDGSTYYADSVKGRFTISRDNAKNTVYLQMNSLNPEDTAVYYCAAVPLWDYKFFYYLLYDYWGQGTQVTVSS”, with “low polyreactivity”; and “QVQLVESGGGLVQAGGSLRLSCAASGFTFSYYAMGWYRQAPGKERELVAAISWSGTAMYYADSVKGRFTISRDNAKNTVYLQMNSLKPEDTAVYYCAAGYSASRKVDYWGQGTQVTVSS”, with “high polyreactivity”; and “QVQLVESGGGLVQAGGSLRLSCAASGFTFSYYAMGWYRQAPGKERELVAAITKRGGRTYYADSVKGRFTISRDNAKNTVYLQMNSLKPEDTAVYYCAVQARNAFYRPAFDYWGQGTQVTVSS”, with “high polyreactivity”. Then “QVQLVESGGGLVQAGGSLRLSCAASGFTFSYYAMGWYRQAPGKERELVARISFSGTRTYYADSVKGRFTISRDNAKNTVYLQMNSLKQEDTAVYYCAARLGYVGITARYDYWGQGTQVTVSS”, with “high polyreactivity”; and “QVQLVESGGGLVQAGGSLRLSCAASGFTFSYYAMGWYRQAPGKERELVAVISDRGGITYYADSVKGRFTISRDIAKITVYLQMNSLKPEDTAVYYCAAQNPRYNYRYYYWGQGTQVTVSS”, with “low polyreactivity”. Take “QVQLVESGGGLVQAGGSLRLSCAASGFTFSYYAMGWYRQATGKERELVAAITSGGSTDYADSVKGRFTISRDNAKNTVYLQMNSLKPEDTAVYYCAVTARGGYQGKGTRRIYGYWGHGTQVTVSS”: the “polyreactivity (PSR sort gate)” value was “high polyreactivity”.

As for “QVQLVESGGGLVQAGGSLRLSCAASGFTFSYYARGWYRQAPGKARELVATISSGGITNYADSVKGRFTISRDNAKNTDYLQMNSLKPEDTAVYYCAAEPSWWNVFYPGYNYWGQGTQVTVSS”, the “polyreactivity (PSR sort gate)” value is reported as “high polyreactivity”.

Turning to “QVQLVESGGGLVQAGGSLRLSCAASGFTFSYYVMGWYRQAAGKERELVAAINRGGSTNYADSVKRRFTISRDNAKNTVYLQMNSLKPEDTAVYYCAARFPGYGYWGQGTEVTVSS”, the “polyreactivity (PSR sort gate)” value is given as “high polyreactivity”. For the sequence “QVQLVESGGGLVQAGGSLRLSCAASGFTFTENVMGWYRQAPGKEREFVAAITYIGGRTYYADSVKGRFTISRDNAKNTVYFQMNSLKPEDTAVYYCAADWAYYVDSYLYYTFDYWGQGTQVTVSS”, the “polyreactivity (PSR sort gate)” value is “low polyreactivity”.

Take “QVQLVESGGGLVQAGGSLRLSCAASGFTFTEYAMGWYRQAPGKERELVADITWSGGITYYADSVKGRFTISRDNAKNTVYLQMNSLKPEDTAVYYCNADYIYSYFYIRYDYWGQGTQVTVSS”: the “polyreactivity (PSR sort gate)” value is “low polyreactivity”.

As to “QVQLVESGGGLVQAGGSLRLSCAASGFTFTFYALGWYRQAPGKERELVAAIRTSDGRTYYADSVKGRFTISRDNAKNTVYLQMNSLKPEDTAVYYCNARRYVGYDYWGQGSQVTVSS”, the “polyreactivity (PSR sort gate)” value is on record as “high polyreactivity”. To “QVQLVESGGGLVQAGGSLRLSCAASGFTFTGYAMGWYRQAPGKERELVAVISSRGGSTYYADSVKGRFTISRDNAKNTVYLQMNSLKPEDTAVYYCAARGYKGFSSPFGYWGQGTQVTVSS” belongs “high polyreactivity”.
